Columns and labels:
[1] = biological target: T1, folate receptor beta (FR-β) (human, UniProt P14207 17-230); test: flow cytometry on FR-β gene-transfected B300-19 cells
T1 construct: whole, on cells; also called FR-β antigen; human FR-β antigen
Experimental: Using a mixture of 20 μl of lipofectamine (Gibco BRL), 1 μg of the purified pEF vector insert, and 1 ml of a Hank's balanced salt solution, the FR-β gene was transfected into B300-19 cells which were previously prepared at 1×10⁵ in 24 wells. […] Namely, 5×10⁵ B3001-9 cells were reacted with 0.1 ml of the FR-β antibody (1 mg/ml) at 4° C. for 30 minutes. The cells were washed 3 times with PBS containing 0.1% NaN₃ and 10% fetal calf serum, after which they were reacted with a fluorescence-labeled goat anti-mouse Ig antibody (BIOSOURCE) at 4° C. for 30 minutes. Then, the cells were washed twice with PBS containing 0.1% NaN₃ and 1% fetal calf serum, after which fluorescence of the cells was assayed using EPICS Elite (Coulter).

[2] = biological target: T2, folate receptor alpha (FR-α) (UniProt P15328 25-234, limits assumed); test: flow cytometry on KB cells, fluorescence-labeled anti-mouse Ig
T2 construct: whole, on cells
T2 sequence (P15328 25-234 limits assumed): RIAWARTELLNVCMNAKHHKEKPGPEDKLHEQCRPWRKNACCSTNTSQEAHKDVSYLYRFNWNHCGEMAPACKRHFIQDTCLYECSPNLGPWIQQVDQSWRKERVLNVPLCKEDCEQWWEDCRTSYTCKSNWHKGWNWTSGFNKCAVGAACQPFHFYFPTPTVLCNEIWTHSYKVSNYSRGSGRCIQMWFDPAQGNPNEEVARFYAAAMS

T1 sequence (P14207 17-230): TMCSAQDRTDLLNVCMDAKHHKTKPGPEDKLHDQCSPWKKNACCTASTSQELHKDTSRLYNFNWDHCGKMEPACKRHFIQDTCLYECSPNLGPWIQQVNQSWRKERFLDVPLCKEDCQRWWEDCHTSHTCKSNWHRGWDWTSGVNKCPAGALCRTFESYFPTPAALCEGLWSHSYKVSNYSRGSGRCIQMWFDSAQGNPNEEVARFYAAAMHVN

Binder	binding result [1]	binding result [2]
IgG-type FR-β monoclonal antibody clone 94b (antibody, V domains shown) VH: EVQLQQSGAELVKPGASVRLSCTASGFNIKDTYMYWVKQRPEQGLEWIGRLDPANGNTRYDPKFQGKATITSDTSSNTAYLQLSSLTSEDTAVYYCAGDYPIIDYWGQGTTLTVSS VL: DIVMSQSPSSLAVSAGEKVTMSCKSSQSLLNSRTRKTYLAWYQQKPGQSPKLLIYWASTRESGVPDRFTGSGSGTEFTLTISSVQAEDLAVYYCKQSYNLWTFGGGTKLEIKR	binds	no binding
IgG-type FR-β monoclonal antibody clone 36 (antibody, V domains shown, also called clone 36 antibody; IgG monoclonal antibody against a human FR-β antigen (clone 36)) VH: QVQLQQSGAELMKPGASLKISCKATGYTFSSYWIEWVKQRPGHGLQWIGEILPGSGSSNYNEKFKGKATFTADTSSNTAYMQLSSLTSEDSAVYYCARRGSSGSYFAMDYWGQGTSVTVSS VL: DIQMTQSSSSFSVSLGDRVTITCKASEDIYNRLAWYQQKPGNAPRLLISGATSLETGVPLRFSGSGSGKDYTLSITSLQTEDIATYYCQQYWSTPWTFGGGTKLEIK	–	no binding

Reference: US20080260812A1 (TAKAMI MATSUYAMA C O KAGOSHIMA UNIVERSITY, published 2008)
